Reference: PMC9065602, “Characterization of Polymer Degrading Lipases, LIP1 and LIP2 From Pseudomonas chlororaphis PA23” (Frontiers in Bioengineering and Biotechnology, 2022)

System: CCCCCCCC(=O)Oc1ccc([N+](=O)[O-])cc1
Assay: purified protein
Assay type: biochemical, Pseudomonas chlororaphis
Conditions: 0.1-3.0 mM substrate, optimal conditions (pH 8.0, 40 °C)

Substance LIP2 (Pseudomonas chlororaphis) has a Km of 286 µM.
